Results from the supplement of paper PMC9170038.

System: MS2 coat protein
Assay: apparent KD of MS2 coat protein; designed switch direction (-1 OFF switch, 1 ON switch): 1; higher = weaker reporter binding
Summary of the method: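 The buffer was Tris-HCl pH 7.5 with KCl, MgCl2, BSA, DTT, tRNA and Tween-20. In it, SNAP-549-labelled MS2 coat protein was titrated in doubling steps from 0.7 or 1.5 nM to 3 µM over chip-bound RNA switches transcribed by stalled E. coli RNA polymerase on Illumina chips. Apparent KD is the per-design median over clusters of curve fits to normalised fluorescence.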

[1] = input ligand: microRNA oligo, concentration not stated
[2] = Eterna round: R95, input ligand: FMN 200 uM
[3] = Eterna round: R95, input ligand: microRNA oligo, concentration not stated
[4] = Eterna round: R95, input ligand: none

In the case of “UAAGGACAUGAGGAUCACCCAUGUGCUUCAUAUGGAGAAACUCAGGAUAUGCUGAGGAUCACCCAGCAGAAGGGAGAUCCGAGG (Eterna round: R96, puzzle: Same State NG 3)”, the “apparent KD of MS2 coat protein” value (input ligand: FMN 200 uM) is reported as 206 nM, the “apparent KD of MS2 coat protein” value [1] is reported as 279 nM and the “apparent KD of MS2 coat protein” value (input ligand: none) is reported as 281 nM.
“UACAAUCUAUCUGAGGAUAUCAUGAAAAAAACAUGAGGAUCACCCAUGUGCAGGAAAACUGCAUAUGAGAAGGCAGAUAGAUUGG [salish99_SS2_r3_007] (Eterna round: R96, puzzle: Same State 2)” was tested, and the “apparent KD of MS2 coat protein” value [1] was 505 nM.
“UACAAUCUAUCUGAGGAUAUCAUGAAAAAAACAUGAGGAUCACCCAUGUGCAGGAAAACUGCAUAUGAGAAGGCAGAUAGAUUGG [salish99_SS2_r3_007] (puzzle: Same State 2)” was tested, and the “apparent KD of MS2 coat protein” value [2] was 14.3 nM, the “apparent KD of MS2 coat protein” value [3] was 3390 nM and the “apparent KD of MS2 coat protein” value [4] was 11700 nM.
With “UACAUACGCGGAGGAUAUGGGCGAGGCACGGAGGUCCGCGCCAAAACAUGAGGAUCACCCAUGUCCCAGAAGGCCGCACAAACU [Oreslaed] (Eterna round: R96, puzzle: Same State NG 2)” the “apparent KD of MS2 coat protein” value (input ligand: FMN 200 uM) was 13.8 nM, the “apparent KD of MS2 coat protein” value [1] was 54.4 nM and the “apparent KD of MS2 coat protein” value (input ligand: none) was 83.1 nM.
For “UACCAUAGUAUAUUGGUGCAAGCUUUUUGACAUGAGGAUCACCCAUGUACUCGUCUUAUGUGCAGUCCGUAGACUGC [JL-shm-2.22 Brourd mod] (puzzle: Sensor for hsa-mir-208a)”, the “apparent KD of MS2 coat protein” value [2] was 57.8 nM, the “apparent KD of MS2 coat protein” value [3] was 13 nM and the “apparent KD of MS2 coat protein” value [4] was 54.6 nM.
With “UACUUAGUGGUAGGAUAUGUAGGAUAUGGCGAGAGCUAAGCUUGGAAGUCACUUCAGCCAGAAGGACAGAAGGACCACUCUCUC [pwkr ssNG2 2FMN + F9.12] (Eterna round: R96, puzzle: Same State NG 2)” the “apparent KD of MS2 coat protein” value (input ligand: FMN 200 uM) was 98 nM, the “apparent KD of MS2 coat protein” value [1] was 17.4 nM and the “apparent KD of MS2 coat protein” value (input ligand: none) was 97.1 nM.
With “UAGAGAGGAAGCGAGGAUAUCGUGUGAGGUACAUGAGGAUCACCCAUGUUUGAUGUUGAGAGAGGCGAGAAGGCGCAGGAGAUUA [JR_SS2_Sub084] (puzzle: Same State 2)” the “apparent KD of MS2 coat protein” value [2] was 34.1 nM, the “apparent KD of MS2 coat protein” value [3] was 26.6 nM and the “apparent KD of MS2 coat protein” value [4] was 35.6 nM.
With “UAGAGAGGAAGCGAGGAUAUCGUGUUAGGUACAUGAGGAUCACCCAUGUUUUAGGUAGAGGUAGGCGAGAAGGCGCAGGAGAAGA [JR_SS2_Sub090] (puzzle: Same State 2)” the “apparent KD of MS2 coat protein” value [2] was 25.8 nM, the “apparent KD of MS2 coat protein” value [3] was 32.9 nM and the “apparent KD of MS2 coat protein” value [4] was 34 nM.
“UAGCGCUGUCGAGAGGAUAUGCGGUGAUGGACAUGAGGAUCACCCAUGUUAGCGAUAGCAUUACGGUAGAAGGCUCUACAGCUGU [salish99_ss2_r3_093] (Eterna round: R96, puzzle: Same State 2)” was tested, and the “apparent KD of MS2 coat protein” value (input ligand: FMN 200 uM) was 38.2 nM, the “apparent KD of MS2 coat protein” value [1] was 342 nM and the “apparent KD of MS2 coat protein” value (input ligand: none) was 694 nM.
In the case of “UAGCGCUGUCGAGAGGAUAUGCGGUGAUGGACAUGAGGAUCACCCAUGUUAGCGAUAGCAUUACGGUAGAAGGCUCUACAGCUGU [salish99_ss2_r3_093] (puzzle: Same State 2)”, the “apparent KD of MS2 coat protein” value [3] is reported as 177 nM.
For “UAGGAUCAACGAGGAUAUAAUAGGUUCUAUUCGUGAUAUUGCGUACAUGAGGAUCACCCAUGUUAUUAGAAGGCGUAUGGGUUU [JR_SSNG2_Sub085] (Eterna round: R96, puzzle: Same State NG 2)”, the “apparent KD of MS2 coat protein” value (input ligand: FMN 200 uM) was 78.7 nM, the “apparent KD of MS2 coat protein” value [1] was 69.9 nM and the “apparent KD of MS2 coat protein” value (input ligand: none) was 92.8 nM.
For “UAGUGCGUUAGAGGAUAUUCUAAAAUAAAAUAAAAGACAUGAGGAUCACCCAUGUAUGUACAUGGGAAGAAGGCUGAUGUGCUA [Omei SS(NG)2 Bv1] (Eterna round: R96, puzzle: Same State NG 2)”, the “apparent KD of MS2 coat protein” value [1] was 296 nM.
With “UAGUUGGUGGUAGGAUAUGUAGGAUAUGGCGAGAGCUAAGCUUGGAAGUCACUUCAGCCAGAAGGACAGAAGGACCAGUAGCUU [pwkr ssNG2 2FMN + F9.10] (Eterna round: R96, puzzle: Same State NG 2)” the “apparent KD of MS2 coat protein” value (input ligand: FMN 200 uM) was 105 nM, the “apparent KD of MS2 coat protein” value [1] was 24.2 nM and the “apparent KD of MS2 coat protein” value (input ligand: none) was 79.1 nM.
“UAUAUUAUGGUAGGAUAUCUAGGAUAUGGGAAGAGCUAAGCUUGGAAGUCACUUCACCCAGAAGGAGAGAAGGACCAUAAUAUU [pwkr ssNG2 2FMN + F9.5] (Eterna round: R96, puzzle: Same State NG 2)” was tested, and the “apparent KD of MS2 coat protein” value (input ligand: FMN 200 uM) was 105 nM, the “apparent KD of MS2 coat protein” value [1] was 240 nM and the “apparent KD of MS2 coat protein” value (input ligand: none) was 76.7 nM.
In the case of “UAUCCAUAGAUAGGAUAUUAGUGAACAUGAGGAUCACCCAUGUUUUGCUUGGUUUUAAGUUAAUCUGAGAAGGAUCUUGAUGAA [SameState NG2 #5] (Eterna round: R96, puzzle: Same State NG 2)”, the “apparent KD of MS2 coat protein” value (input ligand: FMN 200 uM) is reported as 20.3 nM, the “apparent KD of MS2 coat protein” value [1] is reported as 14.6 nM and the “apparent KD of MS2 coat protein” value (input ligand: none) is reported as 20.4 nM.
“UAUCUCAUGUAAGGAUAUGCAGCCGUUUCGGCUGCAGAAGGUACUAUAAUACAUGAGGAUCACCCAUGUCUCUAUUAUUUAGUU [JL SSNG1 1.45] (Eterna round: R96, puzzle: Same State NG 1)” was tested, and the “apparent KD of MS2 coat protein” value (input ligand: FMN 200 uM) was 57.6 nM, the “apparent KD of MS2 coat protein” value [1] was 45.7 nM and the “apparent KD of MS2 coat protein” value (input ligand: none) was 63.8 nM.
For “UAUGAACAUGAGGAUCACCCAUGUGGAAAGGACACAGGAUAUCAUCUCGCACGUGCGAUAUGAGAAGGGUGAUGGU [Quedorinri] (puzzle: Same State 1)”, the “apparent KD of MS2 coat protein” value [3] was 96.3 nM.
“UAUUUAAUCGUAGGAUAUAGAGUGAAAUUUGUACUAGAAGGACGUAACAUGAGGAUCACCCAUGUGGUAAGUGGGACAUAGUAU [JR_SSNG1_Sub037] (Eterna round: R96, puzzle: Same State NG 1)” was tested, and the “apparent KD of MS2 coat protein” value (input ligand: FMN 200 uM) was 44.1 nM, the “apparent KD of MS2 coat protein” value [1] was 27 nM and the “apparent KD of MS2 coat protein” value (input ligand: none) was 39.7 nM.
For “UCAAGCGUUUGGCUCGUUUUAUGUGUUGAACAUGAGGAUCACCCAUGUAUUGUACGAUCCAGUUAGAUGGUAUUUUG [JR_SHM208A_Sub040] (puzzle: Sensor for hsa-mir-208a)”, the “apparent KD of MS2 coat protein” value [2] was 46.9 nM, the “apparent KD of MS2 coat protein” value [3] was 104 nM and the “apparent KD of MS2 coat protein” value [4] was 67.6 nM.
In the case of “UCUUAUAAUAAUAUAAUUCAUUUGAUAAAACAUGAGGAUCACCCAUGUCCUACUUUUUUUAAUCAUUUUAACUUUAA [The 7 c's] (puzzle: Sensor for hsa-mir-208a)”, the “apparent KD of MS2 coat protein” value [2] is reported as 45.3 nM, the “apparent KD of MS2 coat protein” value [3] is reported as 62.6 nM and the “apparent KD of MS2 coat protein” value [4] is reported as 63.5 nM.
With “UCUUGGUUUUUGCUCGUUUUUUGUGUUGAACAUGAGGAUCACCCAUGUAUUAUACGGUCCGGUUUAAUAAUAAUCCG [JMF 81] (puzzle: Sensor for hsa-mir-208a)” the “apparent KD of MS2 coat protein” value [2] was 24.2 nM, the “apparent KD of MS2 coat protein” value [3] was 14.6 nM and the “apparent KD of MS2 coat protein” value [4] was 27.3 nM.
With “UCUUGGUUUUUGCUCGUUUUUUGUGUUGAACAUGAGGAUCACCCAUGUAUUAUACGGUCCGGUUUAGUAGUGGUCCG [JMF 79] (puzzle: Sensor for hsa-mir-208a)” the “apparent KD of MS2 coat protein” value [2] was 28.2 nM, the “apparent KD of MS2 coat protein” value [3] was 16 nM and the “apparent KD of MS2 coat protein” value [4] was 31.1 nM.
With “UCUUGGUUUUUGCUCGUUUUUUGUGUUGAACAUGAGGAUCACCCAUGUAUUGUACAGUCCAGUUUAAUAAUGGUCCG [JMF 55] (puzzle: Sensor for hsa-mir-208a)” the “apparent KD of MS2 coat protein” value [2] was 36.9 nM, the “apparent KD of MS2 coat protein” value [3] was 25.6 nM and the “apparent KD of MS2 coat protein” value [4] was 38.1 nM.
With “UCUUGGUUUUUGCUCGUUUUUUGUGUUGAACAUGAGGAUCACCCAUGUAUUGUACGGUCCAAUUUAAUAAUAGUCCG [JMF 65] (puzzle: Sensor for hsa-mir-208a)” the “apparent KD of MS2 coat protein” value [2] was 26.6 nM, the “apparent KD of MS2 coat protein” value [3] was 19.7 nM and the “apparent KD of MS2 coat protein” value [4] was 32.4 nM.
